These results are taken from article PMC3333781, “Systematic mapping of two component response regulators to gene targets in a model sulfate reducing bacterium”.

What all share (test): EMSA; 10 mM Tris-HCl pH 7.5, 1 mM DTT, 50 mM KCl, 5 mM MgCl2, 25% glycerol, 1 ug/ml poly dI-dC, 50-100 fmol biotinylated DNA, 25-30 C, 20 min
Common to all, as to conditions: protein: recombinant; tags: C-terminal V5-6xHis; chain copies: 2; label: 5'-biotin top strand

The target in data set [1] is T1, DVU1063 response regulator (Desulfovibrio vulgaris Hildenborough, UniProt Q72D66 1-479).
T1 sequence: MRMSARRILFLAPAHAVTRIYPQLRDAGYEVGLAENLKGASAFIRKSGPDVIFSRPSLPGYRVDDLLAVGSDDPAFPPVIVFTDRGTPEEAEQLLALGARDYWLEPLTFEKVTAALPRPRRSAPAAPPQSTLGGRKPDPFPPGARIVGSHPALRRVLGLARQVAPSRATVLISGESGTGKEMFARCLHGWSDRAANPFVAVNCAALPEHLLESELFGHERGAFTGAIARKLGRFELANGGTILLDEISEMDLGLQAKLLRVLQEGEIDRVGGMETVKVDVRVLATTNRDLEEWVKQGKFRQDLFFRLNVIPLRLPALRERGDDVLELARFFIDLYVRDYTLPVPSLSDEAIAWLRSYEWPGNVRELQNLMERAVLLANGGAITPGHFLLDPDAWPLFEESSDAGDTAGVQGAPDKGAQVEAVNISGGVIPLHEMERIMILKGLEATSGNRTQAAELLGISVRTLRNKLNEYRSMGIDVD

Data set [2] addresses T2, DVU2114 response regulator (Desulfovibrio vulgaris Hildenborough, UniProt Q72A83 1-462).
T2 sequence: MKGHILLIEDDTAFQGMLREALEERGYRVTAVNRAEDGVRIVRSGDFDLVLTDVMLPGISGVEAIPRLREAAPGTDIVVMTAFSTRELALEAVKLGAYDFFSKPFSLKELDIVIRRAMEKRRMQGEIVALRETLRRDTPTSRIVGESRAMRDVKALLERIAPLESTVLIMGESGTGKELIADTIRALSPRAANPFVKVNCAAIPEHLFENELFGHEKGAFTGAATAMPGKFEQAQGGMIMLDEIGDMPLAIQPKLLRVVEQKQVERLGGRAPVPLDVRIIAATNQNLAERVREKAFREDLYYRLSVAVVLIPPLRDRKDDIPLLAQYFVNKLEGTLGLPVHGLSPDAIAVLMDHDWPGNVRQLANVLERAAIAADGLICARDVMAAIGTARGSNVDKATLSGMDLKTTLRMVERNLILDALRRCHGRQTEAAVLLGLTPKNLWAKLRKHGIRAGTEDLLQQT

The target of data set [3] is T3, DVU1419 response regulator (Desulfovibrio vulgaris Hildenborough, UniProt Q72C65 1-459).
T3 sequence: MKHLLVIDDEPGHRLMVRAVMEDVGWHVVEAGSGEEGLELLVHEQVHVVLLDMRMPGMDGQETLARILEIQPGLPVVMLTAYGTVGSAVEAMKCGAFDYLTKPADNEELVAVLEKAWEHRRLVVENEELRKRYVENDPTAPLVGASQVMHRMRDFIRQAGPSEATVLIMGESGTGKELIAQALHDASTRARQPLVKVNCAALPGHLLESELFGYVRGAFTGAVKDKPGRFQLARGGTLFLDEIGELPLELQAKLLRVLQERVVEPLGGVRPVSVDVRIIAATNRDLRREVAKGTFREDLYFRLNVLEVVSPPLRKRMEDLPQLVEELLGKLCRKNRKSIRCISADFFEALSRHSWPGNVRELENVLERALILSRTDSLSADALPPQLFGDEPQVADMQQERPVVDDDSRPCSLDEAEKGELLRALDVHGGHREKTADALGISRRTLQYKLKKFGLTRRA

B1: DVU1032 motif mut (dsDNA)
DNA 1: GGCATGGTCGGGCACGTGTTTTCGATTGTATCCTG
DNA 2: CAGGATACAATCGAAAACACGTGCCCGACCATGCC
Regarding B1, the binding result in data set [1] was “no binding”.

B2: DVU2116 motif mut (dsDNA)
DNA 1: ACCGGGCCACTACACAAATCAATGCTGCCCATCGC
DNA 2: GCGATGGGCAGCATTGATTTGTGTAGTGGCCCGGT
Turning to B2, the binding result in data set [2] is “no binding”.

B3: DVU1418 motif mut (dsDNA)
DNA 1: GCCGTGGCGTACTATGCCATCGTTTGCTCGTTCATGGTGC
DNA 2: GCACCATGAACGAGCAAACGATGGCATAGTACGCCACGGC
With B3, in data set [3], the binding result is given as “no binding”.
